Columns and labels:
Settings in all cases: protein: commercial; label: 5' TEX615 (Texas Red) for FA; FAM for APCE; single strand
[1] = target: T1, CA125 (Cancer Antigen 125, mucin glycoprotein) (human, UniProt Q8WXI7 1-14451); assay: affinity probe capillary electrophoresis; TGKM (1 mM Mg2+); FA: 100 nM aptamer heat cycled in TGKM (25 mM Tris, 192 mM glycine, 5 mM KH2PO4, 1 mM MgCl2, pH 8.3), CA125 0-2000 U/mL in PBS, 0.13 mg/mL BSA, 90 min RT, read
[2] = target: T1, CA125 (Cancer Antigen 125, mucin …); assay: fluorescence anisotropy; heat cycled with Mg2+ (5 mM in Results; TGKM is 1 mM in Methods); FA: 100 nM aptamer heat cycled in TGKM (25 mM Tris, 192 mM glycine, 5 mM KH2PO4, 1 mM MgCl2, pH 8.3), CA125 0-2000 U/mL in PBS, 0.13 mg/mL BSA, 90 min RT, read
[3] = target: T1, CA125 (Cancer Antigen 125, mucin …); assay: fluorescence anisotropy; FA: 100 nM aptamer heat cycled in TGKM (25 mM Tris, 192 mM glycine, 5 mM KH2PO4, 1 mM MgCl2, pH 8.3), CA125 0-2000 U/mL in PBS, 0.13 mg/mL BSA, 90 min RT, read
[4] = target: T1, CA125 (Cancer Antigen 125, mucin …); assay: fluorescence anisotropy; heat cycled in PBS without Mg2+; FA: 100 nM aptamer heat cycled in TGKM (25 mM Tris, 192 mM glycine, 5 mM KH2PO4, 1 mM MgCl2, pH 8.3), CA125 0-2000 U/mL in PBS, 0.13 mg/mL BSA, 90 min RT, read
[5] = target: T1, CA125 (Cancer Antigen 125, mucin …); assay: affinity probe capillary electrophoresis; heat cycled in TE without Mg2+; TGK run buffer; FA: 100 nM aptamer heat cycled in TGKM (25 mM Tris, 192 mM glycine, 5 mM KH2PO4, 1 mM MgCl2, pH 8.3), CA125 0-2000 U/mL in PBS, 0.13 mg/mL BSA, 90 min RT, read

B1: CA125_1 (CA125_1_NP, without primer regions) (ssDNA)
DNA: ACTAGCTCCGATCTTTCTTATCTAC
Question: What does the source list for B1?
Answer: Kd [1]: 80 ± 38 U/mL; Kd [2]: 207 ± 109 U/mL

B2: CA125_3 (without primer regions) (ssDNA)
DNA: TTCAATATTACTTATCTTTTTTTTT
Question: Does B2 bind [3]?
Answer: Result: no binding

B3: CA125_2 (without primer regions) (ssDNA)
DNA: CACTCTTTCATTTTATTTATAATTAT
Question: Does B3 bind [3]?
Answer: Result: no binding

B4: CA125_12 (CA125_12_NP, without primer regions) (ssDNA)
DNA: TGCCTTATTACTCTCTCCTGTTAAC
Question: What does the source list for B4?
Answer: Kd [4]: 118 ± 123 U/mL; Kd [5]: 131 ± 93 U/mL

From PMC5322571, “Selection of DNA Aptamers for Ovarian Cancer Biomarker CA125 Using One-Pot SELEX and High-Throughput Sequencing”
